Drawing on the RNAGym collection of RNA variant scans (doi:10.7554/elife.80360), this text covers self-cleavage for 39 variants.

First the molecules themselves.
B1: CPEB3 Ribozyme (parent)
chain: GGGGGCCACAGCAGAAGCGUUCACGUCGCGGCCCCUGUCAGAUUCUGGUGAAUCUGCGAAUUCUGCUGU

The variants in this series derive from B1. Description: self-cleavage, relative activity (ratio to wild type); higher = more cleavage; co-transcriptional.
For GGGAGCCACAGCAGAAGCGUUCACGUCGCGGCCCCUGUCAGAUUCUAGUGAAUCUGCGAAUUCUGCUGU [G4A G47A], the self-cleavage came to 0.895.

As to GGGAGCCACAGCAGAAGCGUUCACGUCGCGGCCCCUGUCAGAUUCUCGUGAAUCUGCGAAUUCUGCUGU [G4A G47C], the self-cleavage was determined as 0.901.

Regarding GGGAGCCACAGCAGAAGCGUUCACGUCGCGGCCCCUGUCAGAUUCUGGGGAAUCUGCGAAUUCUGCUGU [G4A U49G], the self-cleavage was found to be 0.728.

As to GGGAGCCACAGCAGAAGCGUUCACGUCGCGGCCCCUGUCAGAUUCUGGCGAAUCUGCGAAUUCUGCUGU [G4A U49C], the self-cleavage came to 0.916.

As for GGGAGCCACAGCAGAAGCGUUCACGUCGCGGCCCCUAUCAGAUUCUGGUGAAUCUGCGAAUUCUGCUGU [G4A G37A], the self-cleavage came to 0.179.

GGGAGCCACAGCAGAAGCGUUCACGUCGCGGCCCCUUUCAGAUUCUGGUGAAUCUGCGAAUUCUGCUGU [G4A G37U]: the self-cleavage is 0.154.

As to GGGAGCCACAGCAGAAGCGUUCACGUCGCGGCCCCUCUCAGAUUCUGGUGAAUCUGCGAAUUCUGCUGU [G4A G37C], the self-cleavage came to 0.149.

For GGGCGCCACAGCAGAAGCGUUCACGUCGCGGCCCCUGUCAGAUUCUGGUGUAUCUGCGAAUUCUGCUGU [G4C A51U], the self-cleavage turned out to be 0.493.

With GGGCGCCACAGCAGAAGCGUUCACGUCGCGGCCCCUGUCAGAUUCUGGUGGAUCUGCGAAUUCUGCUGU [G4C A51G], the self-cleavage was determined as 0.567.

Consider GGGCGCCACAGCAGAAGCGUUCACGUCGCGGCCCCUGUCAGAUUCUGGUGCAUCUGCGAAUUCUGCUGU [G4C A51C], for which the self-cleavage stood at 0.381.

Turning to GGGAGCCACAGCAGAAGCGUUCACGUCGCAGCCCCUGUCAGAUUCUGGUGAAUCUGCGAAUUCUGCUGU [G4A G30A], the self-cleavage is 0.294.

As for GGGAGCCACAGCAGAAGCGUUCACGUCGCUGCCCCUGUCAGAUUCUGGUGAAUCUGCGAAUUCUGCUGU [G4A G30U], the self-cleavage is 0.0939.

On to GGGAGCCACAGCAGAAGCGUUCACGUCGCCGCCCCUGUCAGAUUCUGGUGAAUCUGCGAAUUCUGCUGU [G4A G30C], for which the self-cleavage was determined as 0.188.

For GGGAGCCACAGCAGAAGCGUUCACAUCGCGGCCCCUGUCAGAUUCUGGUGAAUCUGCGAAUUCUGCUGU [G4A G25A], the self-cleavage is 0.117.

In the case of GGGAGCCACAGCAGAAGCGUUCACUUCGCGGCCCCUGUCAGAUUCUGGUGAAUCUGCGAAUUCUGCUGU [G4A G25U], the self-cleavage came to 0.0834.

Regarding GGGAGCCACAGCAGAAGCGUUCACGUCGCGGCCCCUGUCAGAUUCUGGUGAAUCUGCGAAGUCUGCUGU [G4A U61G], the self-cleavage stood at 0.508.

In the case of GGGAGCCACAGCAGAAGCGUUCACGUCGCGGCCCCUGUCAGAUUCUGGUGAAUCUGCGAAAUCUGCUGU [G4A U61A], the self-cleavage came to 0.477.

In the case of GGGAGCCACAGCAGAAGCGUUCACGUCGCGGCCCCUGUCAGAUUCUGGUGAAUCUGCGAAUUCUGCUGG [G4A U69G], the self-cleavage was found to be 0.985.

Turning to GGGAGCCACAGCAGAAGCGUUCACGUCGCGGCCCCUGUCAGAUUCUGGUGAAUCUGCGAAUUCUGCUGA [G4A U69A], the self-cleavage was 0.912.

On to GGGCGCCACAGCAGAAGCGUUCACGUCGCGGCCCCUGUCAGAUUCUGGUGACUCUGCGAAUUCUGCUGU [G4C A52C], for which the self-cleavage was 0.38.

In the case of GGGCGCCACAGCAGAAGCGUUCACGUCGCGGCCCCUGUCAGAUUCUGGUGAGUCUGCGAAUUCUGCUGU [G4C A52G], the self-cleavage amounted to 0.53.

Consider GGGAGCCACAGCAGAAGCGUUCACGUCGCGGCCCCUGUCAGAUUCCGGUGAAUCUGCGAAUUCUGCUGU [G4A U46C], for which the self-cleavage came to 0.828.

As for GGGCGCCACAGCUGAAGCGUUCACGUCGCGGCCCCUGUCAGAUUCUGGUGAAUCUGCGAAUUCUGCUGU [G4C A13U], the self-cleavage came out at 0.302.

Take GGGCGCCACAGCGGAAGCGUUCACGUCGCGGCCCCUGUCAGAUUCUGGUGAAUCUGCGAAUUCUGCUGU [G4C A13G]: the self-cleavage is 0.472.

As for GGGAGCCACAGCAGAAGCGUUCACGUCGCGGCCCCUGUCAGAUUCUGGUGAAUCUGCGAAUUCUACUGU [G4A G65A], the self-cleavage came to 0.735.

Turning to GGGAGCCACAGCAGAAGCGUUCACGUCGCGGCCCCUGUCAGAUUCUGGUGAAUCUGCGAAUUCUCCUGU [G4A G65C], the self-cleavage came out at 0.418.

As to GGGAGCCACAGCAGAAGCGUUCACGUCGCGGCCCCUGUCAGAUUCUGGUGAAUCUGCGAAUUCUUCUGU [G4A G65U], the self-cleavage worked out at 0.406.

Regarding GGGAGCCACAGCAGAAGCGUUCACGUCGCGGCCCCUGUCAGAUUCUGGUGAAUCUGCGAAUCCUGCUGU [G4A U62C], the self-cleavage worked out at 0.587.

With GGGAGCCACAGCAGAAGCGUUCACGUCGCGUCCCCUGUCAGAUUCUGGUGAAUCUGCGAAUUCUGCUGU [G4A G31U], the self-cleavage was 0.159.

Consider GGGAGCCACAGCAGAAGCGUUCACGUCGCGCCCCCUGUCAGAUUCUGGUGAAUCUGCGAAUUCUGCUGU [G4A G31C], for which the self-cleavage is 0.148.

As to GGGCGCCACAGCAGAAGCGUUCGCGUCGCGGCCCCUGUCAGAUUCUGGUGAAUCUGCGAAUUCUGCUGU [G4C A23G], the self-cleavage came to 0.349.

Regarding GGGCGCCACAGCAGAAGCGUUCCCGUCGCGGCCCCUGUCAGAUUCUGGUGAAUCUGCGAAUUCUGCUGU [G4C A23C], the self-cleavage came to 0.432.

As to GGGAGCCACAGCAGAAGCGUUCACGUCGCGGCCCCUGUCAGAUUCUGGUGAAUCUGCGAAUUCUGCCGU [G4A U67C], the self-cleavage is 0.986.

On to GGGAGCCACAGCAGAAGCGUUCACGUCGCGGCCCCUGUCAGAUUCUGGUGAAUCUGCGAAUUCUGCGGU [G4A U67G], for which the self-cleavage was found to be 0.918.

For GGGAGCCACAGCAGAAGCGUUCACGUCGCGGCCCCUGUCAGAUUCUGGUGAAUCUGCGAAUUCUGCAGU [G4A U67A], the self-cleavage was determined as 0.92.

Turning to GGGAGCCACAGCAGAAGCGUUCACGUCGCGGCCCCUGUCAGAUUCUGGUGAAUCUGCAAAUUCUGCUGU [G4A G58A], the self-cleavage worked out at 0.683.

For GGGAGCCACAGCAGAAGCGUUCACGUCGCGGCCCCUGUCAGAUUCUGGUGAAUCUGCUAAUUCUGCUGU [G4A G58U], the self-cleavage turned out to be 0.9.

GGGCGCCACAGCAGCAGCGUUCACGUCGCGGCCCCUGUCAGAUUCUGGUGAAUCUGCGAAUUCUGCUGU [G4C A15C]: the self-cleavage was 0.145.

For the variant GGGCGCCACAGCAGGAGCGUUCACGUCGCGGCCCCUGUCAGAUUCUGGUGAAUCUGCGAAUUCUGCUGU [G4C A15G], the self-cleavage turned out to be 0.496.
